The labels stand for the following.
B2: human NKG2D-Fc (Fc fusion)
chain: FLNSLFNQEVQIPLTESYCGPCPKNWICYKNNCYQFFDESKNWYESQASCMSQNASLLKVYSKEDQDLLKLVKSYHWMGLVHIPTNGSWQWEDGSILSPNLLTIIEMQKGDCALYASSFKGYIENCSTPNTYICMQRTV
notes: also called natural NKG2D-Fc; not shown: Fc part

The target in experiment [1] is B2. The experiment is described as follows: competition ELISA: inhibits 2 nM human NKG2D-Fc binding to plate-coated WT sMICA. For orientation: An ELISA detects its analyte on a solid surface through an enzyme-linked reagent.
Experiment [2] concerns the target T1, biotinylated human NKG2D (Example 3) (human, UniProt P26718 78-216, limits assumed, biotinylated (site not stated)).
T1 construct: also called recombinant biotinylated NKG2D; surface coated biotinylated human NKG2D
T1 sequence (looked up): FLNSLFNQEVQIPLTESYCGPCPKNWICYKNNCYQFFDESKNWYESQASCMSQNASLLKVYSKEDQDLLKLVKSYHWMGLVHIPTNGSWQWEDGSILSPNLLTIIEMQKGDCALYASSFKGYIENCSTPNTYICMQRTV
The experiment is described as follows: biolayer interferometry (Octet), biotinylated human NKG2D on the surface, 100 nM analyte.

In experiment [3] the target is T1, biotinylated human NKG2D (Example 3). As to the kind of experiment: biolayer interferometry (Octet), Kd = kOFF/kON. A general note: Biolayer interferometry detects binding as a change in optical thickness at a sensor tip.
Experiment [4] addresses T2, OMCP-α3-iFv.2.
T2 construct: also called NKG2DL-α3-iFv.2 (OMCP)
The experiment is described as follows: ELISA: protein captured on FGFR3 detected with NKG2D-Fc.

Experiment [5] addresses T3, ULBP4-Fc (UniProt Q8TD07 31-225).
T3 construct: Bought, R&D Systems; not shown: Fc part of the bought reagent
T3 sequence (looked up): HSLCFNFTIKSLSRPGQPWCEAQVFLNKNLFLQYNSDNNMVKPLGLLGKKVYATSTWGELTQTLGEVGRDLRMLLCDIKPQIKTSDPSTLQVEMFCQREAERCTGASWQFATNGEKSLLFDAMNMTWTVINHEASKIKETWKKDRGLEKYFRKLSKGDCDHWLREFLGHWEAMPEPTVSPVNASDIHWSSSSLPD
As to the kind of experiment: plate ELISA: biotinylated natural NKG2D ectodomain titrated on coated ligand-Fc.

For experiment [6], the target named is T4, MICB-Fc (UniProt Q29980 23-298).
T4 construct: Bought, R&D Systems; not shown: Fc part of the bought reagent
T4 sequence (looked up): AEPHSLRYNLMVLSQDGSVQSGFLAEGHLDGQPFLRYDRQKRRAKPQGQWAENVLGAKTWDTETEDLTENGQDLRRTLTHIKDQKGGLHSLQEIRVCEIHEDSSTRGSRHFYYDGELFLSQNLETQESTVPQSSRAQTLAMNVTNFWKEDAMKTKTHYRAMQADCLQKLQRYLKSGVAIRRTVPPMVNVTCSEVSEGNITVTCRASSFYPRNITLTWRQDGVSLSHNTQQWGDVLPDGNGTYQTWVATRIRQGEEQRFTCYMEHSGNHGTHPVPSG
The experiment is described as follows: ELISA: ligand-Fc coated at 2 ug/ml, biotinylated NKG2D ectodomain titrated, streptavidin-HRP.

The target of experiment [7] is T5, ULBP3-Fc (UniProt Q9BZM4 30-217).
T5 construct: Bought, R&D Systems; not shown: Fc part of the bought reagent
T5 sequence (looked up): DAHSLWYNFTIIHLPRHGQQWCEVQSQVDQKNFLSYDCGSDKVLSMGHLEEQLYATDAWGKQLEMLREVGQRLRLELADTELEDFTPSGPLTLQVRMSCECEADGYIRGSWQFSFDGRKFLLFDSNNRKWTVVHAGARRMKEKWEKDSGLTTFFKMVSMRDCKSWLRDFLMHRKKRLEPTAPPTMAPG
Described as above.

Experiment [8] concerns the target MICwed-Fc. The experiment is described as above.
Experiment [9] concerns the target T6, ULBP1-Fc (UniProt Q9BZM6 26-216).
T6 construct: Bought, R&D Systems; not shown: Fc part of the bought reagent
T6 sequence (looked up): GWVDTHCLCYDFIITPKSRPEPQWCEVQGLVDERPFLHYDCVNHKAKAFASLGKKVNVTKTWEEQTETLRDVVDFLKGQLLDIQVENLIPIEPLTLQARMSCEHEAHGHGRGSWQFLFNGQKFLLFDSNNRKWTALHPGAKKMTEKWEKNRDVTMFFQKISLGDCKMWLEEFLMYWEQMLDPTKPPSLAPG
Described as above.

Experiment [10] has as its target T7, ULBP2-Fc (UniProt Q9BZM5 26-217).
T7 construct: Bought, R&D Systems; not shown: Fc part of the bought reagent
T7 sequence (looked up): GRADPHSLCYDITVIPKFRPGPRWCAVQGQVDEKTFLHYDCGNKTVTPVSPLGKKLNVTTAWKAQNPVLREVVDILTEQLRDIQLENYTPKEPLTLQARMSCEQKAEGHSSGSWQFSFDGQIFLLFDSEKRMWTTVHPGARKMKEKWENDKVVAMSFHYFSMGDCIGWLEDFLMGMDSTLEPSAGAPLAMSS
Described as above.

Experiment [11] deals with T4, MICB-Fc. The experiment is described as follows: ELISA: ligand-Fc coated at 2 ug/ml, biotinylated NKG2D Y152A ectodomain titrated, streptavidin-HRP.
In experiment [12] the target is T8, MICA-Fc.
T8 construct: also called natural α1-α2-α3-Fc fusion
T8 chain: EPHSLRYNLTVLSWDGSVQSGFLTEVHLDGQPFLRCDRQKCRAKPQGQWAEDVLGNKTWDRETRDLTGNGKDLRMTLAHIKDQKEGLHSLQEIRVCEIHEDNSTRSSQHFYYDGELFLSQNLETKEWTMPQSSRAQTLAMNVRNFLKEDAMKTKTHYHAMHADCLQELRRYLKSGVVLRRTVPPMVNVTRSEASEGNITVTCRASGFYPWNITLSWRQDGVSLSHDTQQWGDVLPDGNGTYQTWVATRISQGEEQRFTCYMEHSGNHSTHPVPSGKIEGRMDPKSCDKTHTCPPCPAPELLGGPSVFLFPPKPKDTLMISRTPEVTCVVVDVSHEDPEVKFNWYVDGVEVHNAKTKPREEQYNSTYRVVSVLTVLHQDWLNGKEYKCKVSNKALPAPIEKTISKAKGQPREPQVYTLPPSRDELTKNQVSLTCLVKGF
The experiment is described as above.

Experiment [13] addresses T5, ULBP3-Fc. Described as above.
For experiment [14], the target named is T3, ULBP4-Fc. The experiment is described as above.
The target of experiment [15] is MICwed-Fc. Described as above.
Experiment [16] has as its target T6, ULBP1-Fc. The experiment is described as above.
Experiment [17] deals with T7, ULBP2-Fc. Described as above.

B1: WT α1-α2 soluble MICA protein (Example 3) (ligand)
chain: EPHSLRYNLTVLSWDGSVQSGFLTEVHLDGQPFLRCDRQKCRAKPQGQWAEDVLGNKTWDRETRDLTGNGKDLRMTLAHIKDQKEGLHSLQEIRVCEIHEDNSTRSSQHFYYDGELFLSQNLETKEWTMPQSSRAQTLAMNVRNFLKEDAMKTKTHYHAMHADCLQELRRYLKSGVVLRRTVPPMVQVTRSEASGGSGDRVTITCRASQDVSTAVAWYQQKPGKAPKLLIYSASFLYSGVPSRFSGSGSGTDFTLTISSLQPEDFATYYCQQSYTTPPTFGQGTKVEIKGGSSRSSSSGGGGSGGGGEVQLVESGGGLVQPGGSLRLSCAASGFTFTSTGISWVRQAPGKGLEWVGRIYPTNGSTNYADSVKGRFTISADTSKNTAYLQMNSLRAEDTAVYYCARTYGIYDLYVDYTEYVMDYWGQGTLVTVSSGGSSRSSSSGGGGSGGGGDIQMTQSPSSLSASGGSGQITVTCRASGFYPWNITLSWRQDGVSLSHDTQQWGDVLPDGQGTYQTWVATRISQGEEQRFTCYMEHSGQHSTHPVPSGKGSHHHHHH
notes: also called WT NKG2DL; WT MICA
For orientation: IC50 means the concentration needed to halve the response being measured. The koff is the first-order rate constant of dissociation. A higher koff goes with fast dissociation. As a reminder, the kon is a measure of how fast the partners come together. Low readings indicate slow association, high ones fast association. A word on the Kd: it is the constant that tells how readily two partners part at equilibrium. A lower Kd goes with tighter binding. Regarding B1, the 50% inhibitory concentration (IC50) in experiment [1] is 19.4 nM. In experiment [2], this molecule returned a koff of 0.0018 s⁻¹ and a kon of 130000 M⁻¹ s⁻¹. Moreover, the dissociation constant Kd in experiment [3] worked out at 13.8 nM.
B2: the binding result in experiment [4] is given as “binds”.

B3: His-avitag-natural NKG2D (receptor)
chain: EPHHHHHHGLNDIFEAQKIEWHENSLFNQEVQIPLTESYCGPCPKNWICYKNNCYQFFDESKNWYESQASCMSQNASLLKVYSKEDQDLLKLVKSYHWMGLVHIPTNGSWQWEDGSILSPNLLTIIEMQKGDCALYASSFKGYIENCSTPNTYICMQRTV
modifications: biotin on the avitag sequence (BirA)
notes: also called natural NKG2D ectodomain; wild type NKG2D
What is called EC50 (read off the curve) is the concentration at which the effect is half-maximal. Regarding B3, the binding result in [5], in experiment [6], in experiment [7], in experiment [9] and in experiment [10] was “binds” in each case. In experiment [8], the “EC50 (read off the curve)” value is ~100 nM.

B4: Y152A NKG2D ectodomain (receptor)
chain: EPHHHHHHGLNDIFEAQKIEWHENSLFNQEVQIPLTESYCGPCPKNWICYKNNCYQFFDESKNWYESQASCMSQNASLLKVYSKEDQDLLKLVKSAHWMGLVHIPTNGSWQWEDGSILSPNLLTIIEMQKGDCALYASSFKGYIENCSTPNTYICMQRTV
modifications: biotin on the avitag sequence (BirA)
notes: Expressed with His-avitag; also called non-natural NKG2D mutant Y152A; Y152A mutant NKG2D ectodomain
Consider B4, for which the binding result in experiment [11], in experiment [12], in experiment [13], in [14], in [15] and in [16] was “no binding (tested: 2000 nM)” each time. Also, in experiment [17], the binding result is listed as “no binding (tested: 2000 nM)”.

These data come from patent US20180134765A1 (AVIDBIOTICS, published 2018).
